Reference: article PMC11218785, “Methyltransferase TaSAMT1 mediates wheat freezing tolerance by integrating brassinosteroid and salicylic acid signaling”

Molecular target: T1, MBP-TaBZR1 (Triticum aestivum, UniProt A0A3B6AUH8 1-313)
T1 sequence: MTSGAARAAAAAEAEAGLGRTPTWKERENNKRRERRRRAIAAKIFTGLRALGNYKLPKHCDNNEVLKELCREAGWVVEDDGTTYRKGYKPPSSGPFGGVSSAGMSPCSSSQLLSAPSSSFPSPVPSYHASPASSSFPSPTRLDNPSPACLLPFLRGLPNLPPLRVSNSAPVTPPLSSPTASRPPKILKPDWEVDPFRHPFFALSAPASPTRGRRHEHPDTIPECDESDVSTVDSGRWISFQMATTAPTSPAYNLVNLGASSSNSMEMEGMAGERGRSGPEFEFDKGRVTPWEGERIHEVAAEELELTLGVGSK
Experiment: EMSA; 1 nM probe; 1x LightShift binding buffer, 50 ng poly(dI-dC), 2.5% glycerol, 0.05% NP-40, 50 mM KCl, 5 mM MgCl2, 2 mM EDTA pH 8.0, 1 nM biotin probe, 25 C 20 min, 6% PAGE
Settings: protein: recombinant; tags: N-terminal MBP (pCold-MBP); chain copies: 2; label: biotin (forward strand primer marked bio); blunt

B1: TaSAMT1-B promoter E-box probe (dsDNA)
DNA 1: CACGCGCATACGTGCTCATATGGCAATGAG
DNA 2: CTCATTGCCATATGAGCACGTATGCGCGTG
binding result: binds
